# Publication PMC6193743, “Phosphoglucomutase 1 inhibits hepatocellular carcinoma progression by regulating glucose trafficking”
# Columns and labels:
# HIS-CNBP [1] = biological target: T1, HIS-CNBP (Homo sapiens, UniProt P62633 1-177); test: EMSA; Chemiluminescent EMSA Kit (Thermo) binding buffer, room temperature, 20 min, 5% polyacrylamide gel; salt and pH not stated; conditions: protein: recombinant; tags: His (pET-28a); potential G4
# HIS-CNBP [2] = biological target: T1, HIS-CNBP; test: competition; unlabeled G20 competes with biotin-G20; Chemiluminescent EMSA Kit (Thermo) binding buffer, room temperature, 20 min, 5% polyacrylamide gel; salt and pH not stated; conditions: protein: recombinant; tags: His (pET-28a); potential G4
# T1 sequence (P62633 whole entry): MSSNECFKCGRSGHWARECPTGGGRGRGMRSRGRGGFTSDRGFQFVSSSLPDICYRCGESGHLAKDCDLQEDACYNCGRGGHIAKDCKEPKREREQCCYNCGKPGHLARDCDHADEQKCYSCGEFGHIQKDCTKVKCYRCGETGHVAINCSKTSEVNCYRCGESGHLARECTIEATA
Binder,binding result (HIS-CNBP [1]),binding result (HIS-CNBP [2])
GGGCTGGCGCGGAGGGAGGG (ssDNA) [Biotin-G20],binds,
GGGCTGGCGCGGAGGGAGGG (ssDNA) [G20 unlabeled],,binds
